The target of data set [1] is Rev (Human immunodeficiency virus 1) (UniProt P04325). The note with it: cited from earlier work.
In a further data set the target is Rev116 (HIV-1, UniProt P04616 1-116). In words: analytical ultracentrifugation.
Data set [2] addresses HIV-1 Rev^116 (full-length wild-type Rev) (HIV-1, UniProt P04618). In words: light scattering at 320 nm of the.
The target in data set [3] is HIV-1 Rev^93 (C-terminally truncated Rev, amino acids 1-93) (HIV-1, UniProt P04618). In words: crystal structure.
Data set [4] addresses T1, HIV-1 Rev^116 (full-length wild-type Rev) (HIV-1), P04618.
T1 chain: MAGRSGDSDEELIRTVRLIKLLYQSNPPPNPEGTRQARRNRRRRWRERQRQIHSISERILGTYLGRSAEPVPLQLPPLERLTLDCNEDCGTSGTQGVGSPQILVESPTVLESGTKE
In words: AUC. The note with it: remark: other sources report otherwise.

Data set [5] has as its target T1, HIV-1 Rev^116 (full-length wild-type …). Nature of the data set: light scattering at 320 nm of thermally induced assembly. The settings on record: remark: other sources report otherwise.

One may read the Kd as a measure of binding affinity in units of concentration. On to Rev (from UniProt P04325), for which the equilibrium dissociation constant (Kd) in data set [1] was 1000 nM.
In the case of GGCUGGACUCGUACUUCGGUACUGGAGAAACAGCC (structured_RNA) [RBA-14], the binding result with Rev116 is “binds”.

B1: chimeric rabbit/human scFv SJS-R1 (anti-Rev single-chain variable fragment) (scFv, V domains shown)
VH: QEQLVESGGRLVTPGTALTLTCKVSGFSLSGFWLNWVRQAPGKGLEWVGAIYRGSGSEWYASWAKGRFTISDTSTTVTLKLTSPTTEDTATYFCAADTTDNGYFTIWGPGTLVTVSS
VL: ELVMTQTPSSVSEPVGGTVTIKCQASQSISSWLSWYQQKPGQPPKLLIYDASNLASGVPSRFMGSGSGTEYTLTISGVQREDAATYYCLGGYPAASYRTAFGGGTELEII
As for B1, the binding result in data set [2] and in data set [3] was “binds” throughout.

B2: HIV-1 Rev^116 (full-length wild-type Rev), P04618 1-116 (natural protein)
chain: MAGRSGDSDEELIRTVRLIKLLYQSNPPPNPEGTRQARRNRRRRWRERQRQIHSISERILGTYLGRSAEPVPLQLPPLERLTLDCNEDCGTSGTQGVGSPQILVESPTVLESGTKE
As a reminder, the stoichiometry N is a count of units in the complex or per binding partner. In turn, B2 displayed a stoichiometry N in data set [4] of 4. The molecule further displayed a critical concentration (Cr) of polymer formation in data set [5] of 11 µM.

The record behind these values is PMC7319042 (Structure (London, England : 1993), 2018).
